B1: recombinant human UBXN2A: recombinant GST-tag human UBXN2A protein (SignalChem) (protein, UniProt P68543 1-259, looked up)
UBX domain-containing protein …: MKDVDNLKSIKEEWVCETGSDNQPLGNNQQSNCEYFVDSLFEEAQKVSSKCVSPAEQKKQVDVNIKLWKNGFTVNDDFRSYSDGASQQFLNSIKKGELPSELQGIFDKEEVDVKVEDKKNEICLSTKPVFQPFSGQGHRLGSATPKIVSKAKNIEVENKNNLSAVPLNNLEPITNIQIWLANGKRIVQKFNITHRVSHIKDFIEKYQGSQRSPPFSLATALPVLRLLDETLTLEEADLQNAVIIQRLQKTASFRELSEH
modifications: GST tag

Tests used:
[1] = tested on: SW-48 (WT-p53) colon cancer cells; experiment: Cell viability / clonogenic survival with and without mot-2 inhibitor MKT-077; format: cell-based, human; design: dose or concentration left out as unconfirmed; details: VTD with mot-2 inhibitor MKT-077, 72 hours
Experimental: We decided to confirm whether VTD-induced tumor suppression is indeed mediated via the UBXN2A-mot-2-p53 axis (FIG. 18H). After initial verification with WB (FIG. 18A), HCT-116 (p53+/+ and p53 −/−) and LoVo were treated with VTD for 24, 48, and 72 hours (FIG. 18B-D). […] We defined this phenomenon as a delayed cytotoxic response, since it occurs through UBXN2A transcription, as previously described for other anti-cancer agents. […] In the second set of experiments, we treated two stable UBXN2A silenced clones of HCT-116 along with controls with VTD. […] Staurosporine-treated cells were used as a positive control (S4F). […] Finally, to understand the contribution of mot-2 to the anti-cancer mechanism of VTD, we used a mot-2 inhibitor known as MKT-077 [7] along with VTD in well-differentiated SW-48 (WT-p53) colon cancer cells for 72 hours. Due to the critical role of mot-2 in the mitochondria, we could not use a silencing strategy for mot-2 in this set of experiments.
FIG. 18: Veratridine (VTD) functions via the UBXN2A-mot-2-p53 axis. (A) WB confirmed the presence and the absence of p53 protein in HCT-116 p53^(+/+) and HCT-116 p53^(−/−) cancer cell lines, respectively. […] (F) In another set of experiments, UBXN2A-silenced cells were treated with VTD (100, 200, and 300 μM) for 24 hours. Cells were then labelled with Sytox Red followed by flow cytometry analysis. […] (G) SW48 well-differentiated colon cancer cells with WT-p53 were treated with MKT-077 (5 mg/ml), an mot-2 inhibitor, along with VTD for 72 hours. […] (H) This flowchart recapped the sequence of proteins which activate and function upon VTD exposure to decrease cell viability. The data is shown as mean±SEM of three independent experiments (n=3) in triplicate where *p<0.05 using Benferroni's modified student's t-test.

p53-mot-2 = molecular target: T1, p53-mot-2 (Homo sapiens, UniProt P38646); experiment: In vitro competition immunoprecipitation assay (mot-2, p53, recombinant UBXN2A); format: binding
T1 construct: purchased SignalChem (Richmond, CANADA)
T1 sequence (P38646 47-679): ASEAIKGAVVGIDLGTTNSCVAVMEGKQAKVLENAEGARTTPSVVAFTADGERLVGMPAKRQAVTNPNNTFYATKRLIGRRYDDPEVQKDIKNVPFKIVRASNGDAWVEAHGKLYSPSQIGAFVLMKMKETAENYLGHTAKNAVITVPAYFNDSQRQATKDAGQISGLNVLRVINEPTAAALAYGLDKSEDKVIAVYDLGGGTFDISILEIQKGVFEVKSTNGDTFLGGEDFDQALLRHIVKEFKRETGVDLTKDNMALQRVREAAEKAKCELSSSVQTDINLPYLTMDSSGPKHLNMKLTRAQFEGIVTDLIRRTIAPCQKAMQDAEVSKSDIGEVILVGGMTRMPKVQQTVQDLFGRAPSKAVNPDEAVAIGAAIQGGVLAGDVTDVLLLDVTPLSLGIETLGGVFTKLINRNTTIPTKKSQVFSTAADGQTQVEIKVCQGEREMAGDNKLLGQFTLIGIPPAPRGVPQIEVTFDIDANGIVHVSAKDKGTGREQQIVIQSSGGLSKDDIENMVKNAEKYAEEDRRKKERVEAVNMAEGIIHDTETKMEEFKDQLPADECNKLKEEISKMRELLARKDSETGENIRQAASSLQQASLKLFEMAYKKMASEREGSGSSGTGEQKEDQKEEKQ
Source text: Because mot-2 binds to the […] of p53 and sequesters WT-p53 in the cytoplasm, we asked whether binding UBXN2A to mot-2 can alter mot-2's affinity for p53. […] That is, the two complexes might be mutually exclusive. To further determine whether the binding of mot-2 to UBXN2A decreases the binding of mot-2 to p53, we performed two set of immunoprecipitation experiments with recombinant UBXN2A. FIG. 3a describes an in vitro competition immunoprecipitation assay system containing mot-2, p53, and an increasing amount of recombinant UBXN2A. […] The lowest binding between p53-mot-2 was observed when UBXN2A and mot-2 were present in approximately a 1:1 ratio by their molecular mass (lane 1 versus lane 2). In FIG. 3b, cytosolic fractions enriched with mot-2 and p53 proteins (fractions 3-5, FIG. 2e) were incubated with recombinant GST-tag human UBXN2A protein. After the initial 2 h of incubation, samples were subjected to immunoprecipitation with anti-p53 antibodies. GST-UBXN2A and endogenous mot-2 ratio was 2.5:1 in the reaction. […] Next, we decided to verify whether endogenous UBXN2A can interfere with mot-2-p53 binding using an ex vivo model. […]
FIG. 3 UBXN2A and p53 compete for binding to mot-2. […] Mot-2 proteins were eluted from the beads and analyzed by western blotting using an anti-mot-2 antibody. […]

Row | Molecule | cell viability / colony number [1] | mot-2 protein-bound p53 (p53-mot-2; HCT-116 cytosolic fractions 3-5, GST-UBXN2A to endogenous mot-2 ratio 2.5:1, 2 h) | mot-2 pulled down by anti-p53 antibodies (p53-mot-2; recombinant GST-p53, GST-mot-2, increasing amounts of UBXN2A)
1 | CCn1c(=O)/c(=C2\Sc3ccccc3N2C)s/c1=C\c1cccc[n+]1CC.[Cl-] [MKT-077] | neutralizes the cytotoxic effect of VTD | – | –
2 | B1 | – | decreased the amount of mot-2 protein-bound p53 | decreased the intensity of mot-2 bands
